Reference: patent US20190054137A1 (INDIANA UNIVERSITY RESEARCH AND TECHNOLOGY, published 2019)

target: T1, Recombinant human p65 protein (r-p65) with DDK tag (OriGene catalog number TP320780) (human, UniProt Q04206 1-551); assay: plate-bound PGA probed with r-p65-DDK, method of Friguet, Scatchard analysis
T1 construct: mature; also called r-p65-DDK; human r-p65; not shown: DDK tag
T1 sequence (Q04206 whole entry): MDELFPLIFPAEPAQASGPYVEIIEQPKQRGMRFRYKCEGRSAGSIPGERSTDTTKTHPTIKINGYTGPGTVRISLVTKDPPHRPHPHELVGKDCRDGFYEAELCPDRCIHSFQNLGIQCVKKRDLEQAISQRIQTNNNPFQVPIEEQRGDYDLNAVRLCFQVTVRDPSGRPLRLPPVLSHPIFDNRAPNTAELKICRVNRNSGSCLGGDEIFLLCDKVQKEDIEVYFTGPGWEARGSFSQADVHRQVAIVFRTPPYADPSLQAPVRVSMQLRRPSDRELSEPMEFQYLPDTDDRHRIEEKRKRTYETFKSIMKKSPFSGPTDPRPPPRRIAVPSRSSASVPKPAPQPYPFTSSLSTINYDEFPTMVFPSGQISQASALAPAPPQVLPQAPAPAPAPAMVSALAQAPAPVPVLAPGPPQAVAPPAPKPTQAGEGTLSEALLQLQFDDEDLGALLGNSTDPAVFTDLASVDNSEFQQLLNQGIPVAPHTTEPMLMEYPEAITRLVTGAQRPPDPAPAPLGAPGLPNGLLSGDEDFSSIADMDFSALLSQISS

Ac-EPAPYQPEG-NH2 (also called Analog 14 (GA-3)) [PGA-3] and Ac-EPAPEQPDG-NH2 (also called Analog 8 (GA-5)) [PGA-5] are within 1.5-fold of each other in Kd: 3.27 µM for the first, 3.4 µM for the second.

Ac-EPAPESPQV-NH2 (also called Analog 7 (GA-4)) [PGA-4] and Ac-EPAPLAPYG-NH2 (also called Analog 3 (GA-2)) [PGA-2] are within 1.5-fold of each other in Kd: 3.28 µM for the first, 2.29 µM for the second.

For Ac-APKPYQPRG-NH2 (also called Analog 20 (GA-1)) [PGA-1], the Kd was 4.28 µM.
